Source: patent US20150322137A1 (EVEC, published 2015)

B1: EV046130 (antibody, human IgG1, lambda, V domains shown)
VH: QVQLVESGGGVAQPGRSLRLSCAASGFTLSNYGMHWVRQAPGKGLEWVAVIWYDGRNKYYADSVKGRFTISRDDFKNTLDLQMNSLRAEDTAVYYCARDQHAGITMIEDWGQGTLVTVSS
VL: QSALTQPPSASGSPGQSVTISCTGTSSDVGYFKYVSWYQQHPGKAPKLLIYEVSKRPSGVPDRFSGSRSGNTASLTVSGLQADDEADYYCGSYAGNNNIIFGGGTKLTVLG
B2: EV046124 (antibody, human IgG1, lambda, V domains shown)
VH: QVQLVQSGTELKKPGASVKVSCKASGYTFTDYSMHWLRQAPGESLEWMGWVNGGPLDTKYSPTFQDRVSFSRDVFATTAYMDLSSLGPEDTAVYYCARGWGITAYRGDAFDLWGQGTMVIVSS
VL: SFVLTQPPSVSVAPGKSARITCGASNIESKSVHWYQQKPGQAPVVVVYDDDDRPSGIPERFSGSNSGNTATLIINRVEVGDEADYYCQVWDSTSDMYVFGAGTKVTVLG
B3: EV046115b (antibody, human IgG1, lambda, V domains shown)
VH: QVQLVQSGAEVKKPGASVKVSCKASGYTFSVYGISWVRQAPGHGLEWMGWISAYNGDRGYAQKVQGRITMTTDTSASTAYMELRSLTSDDTAVYYCATTSSGVPGIYWGQGSLVTVSS
VL: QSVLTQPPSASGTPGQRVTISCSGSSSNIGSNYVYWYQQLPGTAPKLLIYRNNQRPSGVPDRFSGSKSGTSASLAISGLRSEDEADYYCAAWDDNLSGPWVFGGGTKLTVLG

Molecular target: T1, F protein of human metapneumovirus strain JPS03-180 (type A1), on infectious virus (human metapneumovirus, strain JPS03-180 …)
Assay: cell-based or functional assay

Binder | IC90, neutralizing activity (hMPV infection of LLC-MK2 cells; GraphPad Prism 6) [µg/mL]
B1 | 0.486
B2 | 0.365
B3 | 1.03

Molecular target: T2, F protein of human metapneumovirus strain JPS02-76 (type B1), on infectious virus (human metapneumovirus, strain JPS02-76 …, UniProt Q6WB98 19-539)
Assay: cell-based or functional assay

Binder | IC90, neutralizing activity (hMPV infection of LLC-MK2 cells; GraphPad Prism 6) [µg/mL]
B1 | 0.714
B2 | 0.952
B3 | 2.3

Molecular target: T3, F protein of human metapneumovirus strain JPS05-21 (type B2), on infectious virus (human metapneumovirus, strain JPS05-21 …)
Assay: cell-based or functional assay

Binder | IC90, neutralizing activity (hMPV infection of LLC-MK2 cells; GraphPad Prism 6) [µg/mL]
B1 | 0.358
B2 | 0.677
B3 | 0.345

Molecular target: T4, F protein of human metapneumovirus strain JPS03-178 (type A2), on infectious virus (human metapneumovirus, strain JPS03-178 …)
Assay: cell-based or functional assay

Binder | IC90, neutralizing activity (hMPV infection of LLC-MK2 cells; GraphPad Prism 6) [µg/mL]
B1 | 2.3
B2 | 0.188
B3 | 5.75

Molecular target: T2, F protein of human metapneumovirus …
Assay: cell-based or functional assay
Remark: another data set of the same source

Binder | IC50, cell-to-cell spread inhibitory activity (LLC-MK2 cells stably expressing TMPRSS2) [µg/mL] | IC90, cell-to-cell spread inhibitory activity (LLC-MK2 cells stably expressing TMPRSS2) [µg/mL]
B1 | 0.0349 | 0.147
B2 | 0.0482 | 0.26
B3 | 0.135 | 0.617

Molecular target: T1, F protein of human metapneumovirus …
Assay: cell-based or functional assay
Remark: another data set of the same source

Binder | IC50, neutralizing activity (hMPV infection of LLC-MK2 cells) [µg/mL]
B1 | 0.21
B2 | 0.07
B3 | 0.29

Molecular target: T2, F protein of human metapneumovirus …
Assay: cell-based or functional assay
Remark: another data set of the same source

Binder | IC50, neutralizing activity (hMPV infection of LLC-MK2 cells) [µg/mL]
B1 | 0.23
B2 | 0.29
B3 | 0.27

Molecular target: T3, F protein of human metapneumovirus …
Assay: cell-based or functional assay
Remark: another data set of the same source

Binder | IC50, neutralizing activity (hMPV infection of LLC-MK2 cells) [µg/mL]
B1 | 0.089
B2 | 0.24
B3 | 0.099

Molecular target: T1, F protein of human metapneumovirus …
Assay: cell-based or functional assay
Remark: another data set of the same source

Binder | IC50, neutralizing activity (hMPV infection of LLC-MK2 cells; GraphPad Prism 6) [µg/mL]
B1 | 0.22
B2 | 0.0767
B3 | 0.322

Molecular target: T3, F protein of human metapneumovirus …
Assay: cell-based or functional assay
Remark: another data set of the same source

Binder | IC50, neutralizing activity (hMPV infection of LLC-MK2 cells; GraphPad Prism 6) [µg/mL]
B1 | 0.105
B2 | 0.255
B3 | 0.108

Molecular target: T4, F protein of human metapneumovirus …
Assay: cell-based or functional assay
Remark: another data set of the same source

Binder | IC50, neutralizing activity (hMPV infection of LLC-MK2 cells; GraphPad Prism 6) [µg/mL]
B1 | 1.95
B2 | 0.0407
B3 | 2.28

Molecular target: T1, F protein of human metapneumovirus …
Assay: cell-based or functional assay
Remark: another data set of the same source

Binder | IC60, neutralizing activity (hMPV infection of LLC-MK2 cells; GraphPad Prism 6) [µg/mL]
B1 | 0.254
B2 | 0.102
B3 | 0.4

Molecular target: T2, F protein of human metapneumovirus …
Assay: cell-based or functional assay
Remark: another data set of the same source

Binder | IC60, neutralizing activity (hMPV infection of LLC-MK2 cells; GraphPad Prism 6) [µg/mL]
B1 | 0.354
B2 | 0.423
B3 | 0.376

Molecular target: T3, F protein of human metapneumovirus …
Assay: cell-based or functional assay
Remark: another data set of the same source

Binder | IC60, neutralizing activity (hMPV infection of LLC-MK2 cells; GraphPad Prism 6) [µg/mL]
B1 | 0.132
B2 | 0.305
B3 | 0.133

Molecular target: T4, F protein of human metapneumovirus …
Assay: cell-based or functional assay
Remark: another data set of the same source

Binder | IC60, neutralizing activity (hMPV infection of LLC-MK2 cells; GraphPad Prism 6) [µg/mL]
B1 | 2.01
B2 | 0.0539
B3 | 2.71
